In this data set the test system is Escherichia coli TOP10. Description: shrunken log2 fold change of peptide-encoding DNA abundance (4.5 h post-induction vs induction); higher = less antimicrobial activity (less host growth inhibition). The note with it: time post-induction: 4.5 h; library: site-saturation at positions 5, 18, 19, 20.
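Also: peptides expressed intracellularly from a pBAD plasmid library in pooled LB shake-flask culture, induced with 0.3% L-arabinose, DNA abundance read by NGS, three biological replicates, DESeq2 with apeglm shrinkage.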

For RRIRTRPPRLPRPRPRPFYFPRP, the “shrunken log2 fold change” value is -0.57.

Turning to RRIRYRPPRLPRPRPRPSTHPRP, the “shrunken log2 fold change” value is 0.396. Regarding RRIRSRPPRLPRPRPRPNRCPRP, the “shrunken log2 fold change” value is 0.173. For RRIRARPPRLPRPRPRPNDCPRP, the “shrunken log2 fold change” value was determined as 0.0748. To RRIRQRPPRLPRPRPRPKMYPRP belongs -0.544; to RRIRFRPPRLPRPRPRPNRNPRP, -0.836. The figure for RRIRGRPPRLPRPRPRPMSWPRP is 0.252; for RRIRNRPPRLPRPRPRPADIPRP it is -0.183; for RRIRCRPPRLPRPRPRPICWPRP it is 0.202.

Regarding RRIRLRPPRLPRPRPRPTIKPRP, the “shrunken log2 fold change” value was -0.395. With RRIRSRPPRLPRPRPRPPFAPRP, the “shrunken log2 fold change” value was 1.88. To RRIRARPPRLPRPRPRPAKGPRP belongs 0.342. As to RRIRRRPPRLPRPRPRPPRHPRP, the “shrunken log2 fold change” value was 1.08.

Consider RRIRARPPRLPRPRPRPPLKPRP, for which the “shrunken log2 fold change” value came to 0.33.

Consider RRIRKRPPRLPRPRPRPQPFPRP, for which the “shrunken log2 fold change” value amounted to 0.18. For the sequence RRIRWRPPRLPRPRPRPDLKPRP, the “shrunken log2 fold change” value amounted to 0.12.

Turning to RRIRCRPPRLPRPRPRPSRFPRP, the “shrunken log2 fold change” value is -0.0991. RRIRNRPPRLPRPRPRPPQIPRP: the “shrunken log2 fold change” value is 0.013. To RRIRDRPPRLPRPRPRPALIPRP belongs 0.145; to RRIRVRPPRLPRPRPRPQHIPRP, -0.32.

With RRIRLRPPRLPRPRPRPLSDPRP, the “shrunken log2 fold change” value is 0.0376. To RRIRIRPPRLPRPRPRPWRTPRP belongs -1.03; to RRIRMRPPRLPRPRPRPYAGPRP, -0.0412; to RRIRRRPPRLPRPRPRPWMEPRP, -0.137. With RRIRCRPPRLPRPRPRPPHIPRP, the “shrunken log2 fold change” value amounted to 0.177. To RRIRQRPPRLPRPRPRPMLCPRP belongs -0.00319; to RRIRNRPPRLPRPRPRPDSEPRP, -0.0671; to RRIRHRPPRLPRPRPRPKPWPRP, 0.528. To RRIRNRPPRLPRPRPRPFESPRP belongs 0.00843; to RRIRPRPPRLPRPRPRPCMTPRP, -0.106.

Take RRIRDRPPRLPRPRPRPHFWPRP: the “shrunken log2 fold change” value is -0.0278. On to RRIRVRPPRLPRPRPRPAFHPRP, for which the “shrunken log2 fold change” value is -0.208.

With RRIRQRPPRLPRPRPRPGTPPRP, the “shrunken log2 fold change” value came out at 0.000485.

For the sequence RRIRWRPPRLPRPRPRPQSEPRP, the “shrunken log2 fold change” value is -0.338. With RRIRIRPPRLPRPRPRPWYPPRP, the “shrunken log2 fold change” value was -0.238. As for RRIRQRPPRLPRPRPRPVYDPRP, the “shrunken log2 fold change” value was -0.228. On to RRIRCRPPRLPRPRPRPISVPRP, for which the “shrunken log2 fold change” value was found to be 0.0666.

As to RRIRERPPRLPRPRPRPAIVPRP, the “shrunken log2 fold change” value turned out to be 0.00833. With RRIRVRPPRLPRPRPRPHWEPRP, the “shrunken log2 fold change” value was -0.0118. As for RRIRTRPPRLPRPRPRPVWLPRP, the “shrunken log2 fold change” value is -0.101.

With RRIRRRPPRLPRPRPRPTADPRP, the “shrunken log2 fold change” value was found to be 0.808.

In the case of RRIRVRPPRLPRPRPRPQEDPRP, the “shrunken log2 fold change” value is -0.467. To RRIRKRPPRLPRPRPRPEYCPRP belongs 0.109. RRIRSRPPRLPRPRPRPVRAPRP: the “shrunken log2 fold change” value worked out at 0.655. Consider RRIRSRPPRLPRPRPRPPQSPRP, for which the “shrunken log2 fold change” value was determined as 0.373. Consider RRIRRRPPRLPRPRPRPCFSPRP, for which the “shrunken log2 fold change” value is -0.14. As for RRIRPRPPRLPRPRPRPQMAPRP, the “shrunken log2 fold change” value is 0.129. RRIRDRPPRLPRPRPRPAMDPRP: the “shrunken log2 fold change” value was determined as 0.335. To RRIRWRPPRLPRPRPRPRELPRP belongs 0.642; to RRIRIRPPRLPRPRPRPHDTPRP, -0.548; to RRIRNRPPRLPRPRPRPHVAPRP, -0.0498. Consider RRIRPRPPRLPRPRPRPPTFPRP, for which the “shrunken log2 fold change” value was -0.142.

RRIRQRPPRLPRPRPRPEIFPRP: the “shrunken log2 fold change” value was determined as 0.127. As for RRIRMRPPRLPRPRPRPNDDPRP, the “shrunken log2 fold change” value worked out at 0.196. In the case of RRIRFRPPRLPRPRPRPSNQPRP, the “shrunken log2 fold change” value was determined as 0.0631. In the case of RRIRCRPPRLPRPRPRPFHSPRP, the “shrunken log2 fold change” value is -0.458. The figure for RRIRGRPPRLPRPRPRPEAPPRP is 1.73. On to RRIRHRPPRLPRPRPRPHKPPRP, for which the “shrunken log2 fold change” value came to 0.0188. The figure for RRIRARPPRLPRPRPRPQMHPRP is 1.05; for RRIRYRPPRLPRPRPRPTEIPRP it is -0.41. As to RRIRHRPPRLPRPRPRPQGVPRP, the “shrunken log2 fold change” value is -0.00445. In the case of RRIRPRPPRLPRPRPRPNYAPRP, the “shrunken log2 fold change” value is -0.0849. Regarding RRIRLRPPRLPRPRPRPLGPPRP, the “shrunken log2 fold change” value is 0.332.

Turning to RRIRFRPPRLPRPRPRPKFMPRP, the “shrunken log2 fold change” value is -0.542. The figure for RRIRERPPRLPRPRPRPAWFPRP is 0.187. Take RRIRWRPPRLPRPRPRPEMTPRP: the “shrunken log2 fold change” value is -0.0833. Take RRIRGRPPRLPRPRPRPPWMPRP: the “shrunken log2 fold change” value is 0.373. To RRIRARPPRLPRPRPRPQNFPRP belongs -0.0953. In the case of RRIRCRPPRLPRPRPRPLQWPRP, the “shrunken log2 fold change” value was -0.0609. Consider RRIRWRPPRLPRPRPRPRKYPRP, for which the “shrunken log2 fold change” value is 0.0119. To RRIRVRPPRLPRPRPRPWTAPRP belongs -0.12; to RRIRRRPPRLPRPRPRPASEPRP, 0.182; to RRIRLRPPRLPRPRPRPNWPPRP, 0.379.

For RRIRIRPPRLPRPRPRPTNQPRP, the “shrunken log2 fold change” value was -0.28. For the sequence RRIRNRPPRLPRPRPRPFCEPRP, the “shrunken log2 fold change” value was -0.28.

Take RRIRRRPPRLPRPRPRPTDFPRP: the “shrunken log2 fold change” value is -0.00455. Consider RRIRNRPPRLPRPRPRPWRRPRP, for which the “shrunken log2 fold change” value was -0.0717. The figure for RRIRGRPPRLPRPRPRPCLRPRP is 0.459.

Consider RRIRARPPRLPRPRPRPKGMPRP, for which the “shrunken log2 fold change” value is 0.4. For RRIRKRPPRLPRPRPRPHGCPRP, the “shrunken log2 fold change” value came out at 0.352.

In the case of RRIRKRPPRLPRPRPRPGYFPRP, the “shrunken log2 fold change” value was -0.0741. For the sequence RRIRLRPPRLPRPRPRPAKCPRP, the “shrunken log2 fold change” value is -0.0859. To RRIRARPPRLPRPRPRPELPPRP belongs 1.5; to RRIRERPPRLPRPRPRPQSFPRP, -0.0705; to RRIRSRPPRLPRPRPRPDILPRP, 0.115. On to RRIRLRPPRLPRPRPRPWGKPRP, for which the “shrunken log2 fold change” value is -0.0201. To RRIRTRPPRLPRPRPRPPYIPRP belongs -0.694; to RRIRDRPPRLPRPRPRPAIPPRP, -0.538; to RRIRQRPPRLPRPRPRPPRMPRP, 0.442. RRIRRRPPRLPRPRPRPWLTPRP: the “shrunken log2 fold change” value is -0.245. RRIRNRPPRLPRPRPRPSNFPRP: the “shrunken log2 fold change” value was -0.31.
